The text below walks through data of the supplement of paper PMC9112550, “Optimization of the antimicrobial peptide Bac7 by deep mutational scanning” (BMC Biology, 2022).
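Also: peptides expressed intracellularly from a pBAD plasmid library in pooled LB shake-flask culture, induced with 0.3% L-arabinose, DNA abundance read by NGS, three biological replicates, DESeq2 with apeglm shrinkage.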

This data set has as its system Escherichia coli TOP10. Put plainly: shrunken log2 fold change of peptide-encoding DNA abundance (4.5 h post-induction vs induction); higher = less antimicrobial activity (less host growth inhibition). The settings on record: time post-induction: 4.5 h; library: site-saturation at positions 5, 18, 19, 20.
Turning to RRIRIRPPRLPRPRPRPWFAPRP, the “shrunken log2 fold change” value was -0.31. Under RRIRYRPPRLPRPRPRPPFEPRP stands -0.0385; under RRIRKRPPRLPRPRPRPRKYPRP, -0.211. Under RRIRRRPPRLPRPRPRPDISPRP stands 0.0322; under RRIRDRPPRLPRPRPRPMCSPRP, 0.261; under RRIRSRPPRLPRPRPRPSEEPRP, -0.243.

With RRIRFRPPRLPRPRPRPVCYPRP, the “shrunken log2 fold change” value is -0.495. Under RRIRCRPPRLPRPRPRPQDCPRP stands -0.241.

Take RRIRGRPPRLPRPRPRPCIHPRP: the “shrunken log2 fold change” value worked out at 0.00637. RRIRRRPPRLPRPRPRPTPPPRP: the “shrunken log2 fold change” value is 0.845. As for RRIRKRPPRLPRPRPRPPMFPRP, the “shrunken log2 fold change” value worked out at 0.269. In the case of RRIRPRPPRLPRPRPRPYYRPRP, the “shrunken log2 fold change” value was -0.178. Under RRIRARPPRLPRPRPRPRKTPRP stands 0.29; under RRIRERPPRLPRPRPRPGWTPRP, 0.0709. The result for RRIRIRPPRLPRPRPRPMIPPRP reads 1.87; that for RRIRHRPPRLPRPRPRPFLVPRP, -0.106. The result for RRIRGRPPRLPRPRPRPLWWPRP reads 0.458; that for RRIRDRPPRLPRPRPRPTPCPRP, 0.25. Turning to RRIRARPPRLPRPRPRPNEHPRP, the “shrunken log2 fold change” value is 0.0215. The result for RRIRWRPPRLPRPRPRPMGNPRP reads -0.0828; that for RRIRLRPPRLPRPRPRPPYDPRP, -0.188; that for RRIRARPPRLPRPRPRPHWGPRP, 0.119. With RRIRPRPPRLPRPRPRPFWLPRP, the “shrunken log2 fold change” value came to 0.115. The result for RRIRGRPPRLPRPRPRPGWRPRP reads 1.09. Under RRIRTRPPRLPRPRPRPRIHPRP stands 0.0773; under RRIRPRPPRLPRPRPRPSSDPRP, -0.317.

In the case of RRIRIRPPRLPRPRPRPLGAPRP, the “shrunken log2 fold change” value is 0.241.

For the sequence RRIRTRPPRLPRPRPRPQILPRP, the “shrunken log2 fold change” value was -0.105.

Turning to RRIRNRPPRLPRPRPRPNFAPRP, the “shrunken log2 fold change” value amounted to 0.0544.

As for RRIRVRPPRLPRPRPRPPRCPRP, the “shrunken log2 fold change” value amounted to 0.324. On to RRIRSRPPRLPRPRPRPYYQPRP, for which the “shrunken log2 fold change” value was -0.608. The result for RRIRNRPPRLPRPRPRPIKYPRP reads -0.068. Under RRIRSRPPRLPRPRPRPYSNPRP stands -0.549; under RRIRCRPPRLPRPRPRPVKFPRP, -0.192; under RRIRSRPPRLPRPRPRPTEMPRP, 0.233.

On to RRIRERPPRLPRPRPRPRRMPRP, for which the “shrunken log2 fold change” value amounted to 0.119. Under RRIRWRPPRLPRPRPRPTEPPRP stands -0.0787. Under RRIRARPPRLPRPRPRPDGRPRP stands 0.197; under RRIRPRPPRLPRPRPRPVGTPRP, 0.1. Under RRIRPRPPRLPRPRPRPQWEPRP stands 0.155. For RRIRHRPPRLPRPRPRPYMCPRP, the “shrunken log2 fold change” value is -0.536. Take RRIRERPPRLPRPRPRPQQFPRP: the “shrunken log2 fold change” value was -0.0731. Take RRIRGRPPRLPRPRPRPSVAPRP: the “shrunken log2 fold change” value stood at 1.37. Under RRIRLRPPRLPRPRPRPDFMPRP stands -0.277.

RRIRRRPPRLPRPRPRPHTCPRP: the “shrunken log2 fold change” value came out at 0.0847.

Take RRIRSRPPRLPRPRPRPDATPRP: the “shrunken log2 fold change” value stood at 0.816. On to RRIRFRPPRLPRPRPRPSLLPRP, for which the “shrunken log2 fold change” value is -0.311. In the case of RRIRARPPRLPRPRPRPSWPPRP, the “shrunken log2 fold change” value turned out to be 0.164. The result for RRIRCRPPRLPRPRPRPKKPPRP reads -0.0369. The result for RRIRLRPPRLPRPRPRPAYIPRP reads -0.098; that for RRIRRRPPRLPRPRPRPKQGPRP, -0.079; that for RRIRRRPPRLPRPRPRPHQFPRP, -0.183. Under RRIRERPPRLPRPRPRPLNRPRP stands 0.0599; under RRIRMRPPRLPRPRPRPHAIPRP, 0.224. Turning to RRIRMRPPRLPRPRPRPYMRPRP, the “shrunken log2 fold change” value is 0.0391. Under RRIRQRPPRLPRPRPRPKSKPRP stands -0.123; under RRIRGRPPRLPRPRPRPLAGPRP, 0.887; under RRIRDRPPRLPRPRPRPQTIPRP, -0.164. The result for RRIRWRPPRLPRPRPRPYKRPRP reads -0.977; that for RRIRDRPPRLPRPRPRPIWMPRP, -0.00247; that for RRIRQRPPRLPRPRPRPATPPRP, 0.331. Under RRIRYRPPRLPRPRPRPYKMPRP stands -0.277; under RRIRDRPPRLPRPRPRPEYNPRP, -0.116; under RRIRVRPPRLPRPRPRPGTCPRP, 0.0803. With RRIRDRPPRLPRPRPRPQAMPRP, the “shrunken log2 fold change” value was found to be 0.133. The result for RRIRHRPPRLPRPRPRPGTLPRP reads -0.259.

As for RRIRKRPPRLPRPRPRPWMMPRP, the “shrunken log2 fold change” value turned out to be 0.211. Under RRIRERPPRLPRPRPRPWPHPRP stands -0.0947. Under RRIRCRPPRLPRPRPRPSWSPRP stands -0.263; under RRIRPRPPRLPRPRPRPINFPRP, -0.168; under RRIRRRPPRLPRPRPRPMLYPRP, -0.0417. Under RRIRPRPPRLPRPRPRPKMKPRP stands 1.05; under RRIRKRPPRLPRPRPRPSAFPRP, 0.619. Consider RRIRDRPPRLPRPRPRPEFFPRP, for which the “shrunken log2 fold change” value amounted to 0.896.

Turning to RRIRYRPPRLPRPRPRPQHCPRP, the “shrunken log2 fold change” value is -0.0601. Under RRIRDRPPRLPRPRPRPDHFPRP stands -0.0133; under RRIRNRPPRLPRPRPRPNCPPRP, -0.361. Consider RRIRDRPPRLPRPRPRPTHQPRP, for which the “shrunken log2 fold change” value is 0.0642. Under RRIRSRPPRLPRPRPRPSQYPRP stands -0.466. Consider RRIRTRPPRLPRPRPRPDVPPRP, for which the “shrunken log2 fold change” value is -0.0167.

With RRIRCRPPRLPRPRPRPRMEPRP, the “shrunken log2 fold change” value stood at 0.0253. Under RRIRTRPPRLPRPRPRPRLQPRP stands 0.123. Take RRIRNRPPRLPRPRPRPIMKPRP: the “shrunken log2 fold change” value is -0.059. The result for RRIRNRPPRLPRPRPRPDHMPRP reads -0.00141; that for RRIRERPPRLPRPRPRPCNHPRP, -0.567; that for RRIRLRPPRLPRPRPRPSAWPRP, -0.0766. The result for RRIRRRPPRLPRPRPRPPGGPRP reads 0.348; that for RRIRTRPPRLPRPRPRPTLYPRP, -0.102. Turning to RRIRSRPPRLPRPRPRPYLIPRP, the “shrunken log2 fold change” value was -0.363. As for RRIRWRPPRLPRPRPRPFGNPRP, the “shrunken log2 fold change” value was -0.0165. Under RRIRQRPPRLPRPRPRPCTPPRP stands -0.141; under RRIRCRPPRLPRPRPRPYRSPRP, 0.00395; under RRIRERPPRLPRPRPRPCAKPRP, 0.00616.

RRIRPRPPRLPRPRPRPEGCPRP: the “shrunken log2 fold change” value was 0.17.

Turning to RRIRFRPPRLPRPRPRPQFFPRP, the “shrunken log2 fold change” value was -0.193.

With RRIRNRPPRLPRPRPRPMGAPRP, the “shrunken log2 fold change” value is 0.115. The result for RRIRDRPPRLPRPRPRPRQQPRP reads 0.388; that for RRIRSRPPRLPRPRPRPDGKPRP, 0.00369; that for RRIRERPPRLPRPRPRPKAQPRP, 0.221.

As to RRIRGRPPRLPRPRPRPEKLPRP, the “shrunken log2 fold change” value amounted to 0.844. Under RRIRPRPPRLPRPRPRPNAEPRP stands 0.154; under RRIRRRPPRLPRPRPRPPASPRP, 0.615; under RRIRARPPRLPRPRPRPKGRPRP, 0.368.

As for RRIRPRPPRLPRPRPRPPSNPRP, the “shrunken log2 fold change” value is -0.0339. Under RRIRMRPPRLPRPRPRPPWIPRP stands 0.248; under RRIRNRPPRLPRPRPRPWNRPRP, 0.0601. The result for RRIRCRPPRLPRPRPRPQCHPRP reads 0.134; that for RRIRERPPRLPRPRPRPGICPRP, -0.0398; that for RRIRHRPPRLPRPRPRPQNKPRP, -0.654.

In the case of RRIRHRPPRLPRPRPRPQMHPRP, the “shrunken log2 fold change” value is -0.00258. Under RRIRTRPPRLPRPRPRPEDCPRP stands 0.0288; under RRIRIRPPRLPRPRPRPAFFPRP, 0.0559. Under RRIRERPPRLPRPRPRPCVLPRP stands 0.0248; under RRIRCRPPRLPRPRPRPYDNPRP, -0.498; under RRIRDRPPRLPRPRPRPTTNPRP, 0.411. Under RRIRNRPPRLPRPRPRPTNVPRP stands 0.0366; under RRIRERPPRLPRPRPRPGACPRP, 0.0171; under RRIRKRPPRLPRPRPRPNEHPRP, 0.448. For the sequence RRIRRRPPRLPRPRPRPPSSPRP, the “shrunken log2 fold change” value turned out to be 0.303.

As for RRIRPRPPRLPRPRPRPQHTPRP, the “shrunken log2 fold change” value was 0.769.

On to RRIRHRPPRLPRPRPRPMANPRP, for which the “shrunken log2 fold change” value is -0.0536. Turning to RRIRTRPPRLPRPRPRPISRPRP, the “shrunken log2 fold change” value was -0.0253. The result for RRIRIRPPRLPRPRPRPGSCPRP reads 0.968; that for RRIRMRPPRLPRPRPRPTMHPRP, 0.488. The result for RRIRPRPPRLPRPRPRPWRWPRP reads 0.915.
